Experimental data reported in publication PMC5879082, “PutA Is Required for Virulence and Regulated by PruR in Pseudomonas aeruginosa”.

Legend:
[1] = target: T1, rPruR (AraC/XylS family regulator) (Pseudomonas aeruginosa PAK) (UniProt Q9I5F8); test: EMSA; settings: 50 mM Tris pH 7.9, 50 mM NaCl, 0.5 mM EDTA, 10% glycerol, 1% NP-40, 25 C, 10 min; 50 ng DNA, 2 ug rPruR in 20 ul; 8% native PAGE in TBE on ice (EMSA) …
T1 sequence: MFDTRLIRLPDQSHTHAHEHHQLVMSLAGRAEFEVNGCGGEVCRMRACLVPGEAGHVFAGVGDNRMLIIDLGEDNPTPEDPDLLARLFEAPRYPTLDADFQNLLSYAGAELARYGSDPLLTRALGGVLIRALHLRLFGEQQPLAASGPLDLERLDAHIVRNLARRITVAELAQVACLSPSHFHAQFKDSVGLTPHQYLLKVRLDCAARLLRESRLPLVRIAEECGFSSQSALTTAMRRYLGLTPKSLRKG

[2] = target: T2, rPruR (AraC/XylS family regulator) (Pseudomonas aeruginosa PAK, UniProt Q9I5F8 1-250); test: EMSA; 50 mM Tris pH 7.9, 50 mM NaCl, 0.5 mM EDTA, 10% glycerol, 1% NP-40, 25 C, 10 min; 50 ng DNA, 2 ug rPruR in 20 ul; 8% native PAGE in TBE on ice (EMSA); footprint 300 ng probe, 0.09 U DNase I, 25 C 5 min; settings: protein: recombinant; tags: His tag (pET-28a(+)); blunt
T2 sequence: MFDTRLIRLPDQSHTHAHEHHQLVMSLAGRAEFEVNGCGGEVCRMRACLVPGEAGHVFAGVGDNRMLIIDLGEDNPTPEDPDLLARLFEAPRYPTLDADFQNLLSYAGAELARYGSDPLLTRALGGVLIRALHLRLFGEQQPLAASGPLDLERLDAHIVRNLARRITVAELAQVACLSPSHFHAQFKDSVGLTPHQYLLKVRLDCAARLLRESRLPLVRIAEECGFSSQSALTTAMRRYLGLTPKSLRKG

“CCCTCTCGCAGCCACTACATTCCGCTATCCGCTGGTGCCTCGCGCCGGCGGAATGGGCCTGACCCATACTGATCCGTATTCCCGCGCCACAGGACGTGCCGCGCCGCCGGCACAACCCGCCGGCGGCGGTGCCCCGGGCAATGGACGCCTGGCCGGACTTCTTTCAATAACAATGGCTCCACAAGAGGAGGGCGTG (double strand) [putA promoter F3]” was tested, and the binding [1] was “no binding”.

“CTTTCCCGTTCCTCTTCGCCGGCAGGCATGCGGACATTGCCGCTGCACGTCGGCACGACGCCATGCAGAGTGGCTACGCGGGTCTACCGACACAAAAAGAAATAATATAACATCCCAATAAATACGCCGAT (double strand) [putA promoter F5]” was tested, and the binding [1] was “no binding”.

B1: putA promoter F6 (dsDNA)
DNA 1: TTCCGCAGCCAGGAGTTTTCCGCAAAAACTCCAGAGTCTTTCGCAAGAATCGC
DNA 2: GCGATTCTTGCGAAAGACTCTGGAGTTTTTGCGGAAAACTCCTGGCTGCGGAA
B1: binds [2].
